Values quoted from earlier work as cited in PMC4245983 (Biochemistry, 2014).
Entries after “also recorded” stand apart in the source; their conditions may differ.

Tests used:
[1] = system: HscA; conditions: 25 °C; background statement, no reference given
[2] = system: HscA; conditions: read-out: Km of WT HscA (ATP)
[3] = molecular target: WT HscA; conditions: read-out: Kd^ATP of WT HscA
[4] = system: IscU
[5] = system: HscA; conditions: compared to DnaK
[6] = system: [2Fe-2S] cluster transfer
[7] = system: Hsc70 NBD; conditions: NBD with interdomain linker; ref 32 (b59 prints ref 23)

B1: WT HscA: specialized Hsp70-type chaperone (66 kDa) of E. coli (protein, UniProt P0A6Z1 1-616, looked up)
chain: MALLQISEPGLSAAPHQRRLAAGIDLGTTNSLVATVRSGQAETLADHEGRHLLPSVVHYQQQGHSVGYDARTNAALDTANTISSVKRLMGRSLADIQQRYPHLPYQFQASENGLPMIETAAGLLNPVRVSADILKALAARATEALAGELDGVVITVPAYFDDAQRQGTKDAARLAGLHVLRLLNEPTAAAIAYGLDSGQEGVIAVYDLGGGTFDISILRLSRGVFEVLATGGDSALGGDDFDHLLADYIREQAGIPDRSDNRVQRELLDAAIAAKIALSDADSVTVNVAGWQGEISREQFNELIAPLVKRTLLACRRALKDAGVEADEVLEVVMVGGSTRVPLVRERVGEFFGRPPLTSIDPDKVVAIGAAIQADILVGNKPDSEMLLLDVIPLSLGLETMGGLVEKVIPRNTTIPVARAQDFTTFKDGQTAMSIHVMQGERELVQDCRSLARFALRGIPALPAGGAHIRVTFQVDADGLLSVTAMEKSTGVEASIQVKPSYGLTDSEIASMIKDSMSYAEQDVKARMLAEQKVEAARVLESLHGALAADAALLSAAERQVIDDAAAHLSEVAQGDDVDAIEQAIKNVDKQTQDFAARRMDQSVRRALKGHSVDEV
modifications: full-length
intrinsic ATPase activity [1]: 0.02 min^–1 | Km [2]: 12.6 µM | Kd [3]: 26 ± 7 µM | preferential binding to conformational state of IscU [4]: binds preferentially to the D-state | binding affinity for ATP, fold weaker than DnaK [5]: 10^3 fold | rate of ADP dissociation, fold higher than DnaK [5]: > 10^3 fold

B2: HscA T212V (protein, UniProt P0A6Z1 1-616, looked up, variant T212V)
Chaperone protein HscA: MALLQISEPGLSAAPHQRRLAAGIDLGTTNSLVATVRSGQAETLADHEGRHLLPSVVHYQQQGHSVGYDARTNAALDTANTISSVKRLMGRSLADIQQRYPHLPYQFQASENGLPMIETAAGLLNPVRVSADILKALAARATEALAGELDGVVITVPAYFDDAQRQGTKDAARLAGLHVLRLLNEPTAAAIAYGLDSGQEGVIAVYDLGGGVFDISILRLSRGVFEVLATGGDSALGGDDFDHLLADYIREQAGIPDRSDNRVQRELLDAAIAAKIALSDADSVTVNVAGWQGEISREQFNELIAPLVKRTLLACRRALKDAGVEADEVLEVVMVGGSTRVPLVRERVGEFFGRPPLTSIDPDKVVAIGAAIQADILVGNKPDSEMLLLDVIPLSLGLETMGGLVEKVIPRNTTIPVARAQDFTTFKDGQTAMSIHVMQGERELVQDCRSLARFALRGIPALPAGGAHIRVTFQVDADGLLSVTAMEKSTGVEASIQVKPSYGLTDSEIASMIKDSMSYAEQDVKARMLAEQKVEAARVLESLHGALAADAALLSAAERQVIDDAAAHLSEVAQGDDVDAIEQAIKNVDKQTQDFAARRMDQSVRRALKGHSVDEV
effect of ATPase deficient mutant on [2Fe-2S] cluster transfer [6]: abolishes [2Fe-2S] cluster transfer

B3: auxilin: J-protein of Hsc70 (protein, UniProt Q27974 1-910, looked up)
Auxilin: MDSSGASSPDMEPSYGGGLFDMVKGGAGRLFSNLKDNLKDTLKDTSSRVIQSVTSYTKGDLDFTYVTSRIIVMSFPLDSVDIGFRNQVDDIRSFLDSRHLDHYTVYNLSPKSYRTAKFHSRVSECSWPIRQAPSLHNLFAVCRNMYNWLLQNPKNVCVVHCLDGRAASSILVGAMFIFCNLYSTPGPAVRLLYAKRPGIGLSPSHRRYLGYMCDLLADKPYRPHFKPLTIKSITVSPVPFFNKQRNGCRPYCDVLIGETKIYTTCADFERMKEYRVQDGKIFIPLSITVQGDVVVSMYHLRSTIGSRLQAKVTNTQIFQLQFHTGFIPLDTTVLKFTKPELDACDVPEKYPQLFQVTLDVELQPHDKVMELTPPWEHYCTKDVNPSILFSSHQEHQDTLVLGGQAPIDIPPDNPRHFGQGGFFSTLCWQDQKSEKSFCEEDHAALVNQESEQSDDELLTLSSPHGNANGDKPHAARKPSKKQQEPAAPAPPEDVDLLGLEGSAVSKNFSSPAAPPSNSELLSDLFGGGGAAGPVQSGQSGVDDVFHPSGPTSTQSTPRRSATSTSASPTLRVGEGATFDPFGAPSKPSGQDLLGSFLNTASASSDPFLQPTRSPSPTVHASSTPAVNIQPDVSGAWDWHTKPGGFGMGSKSAATSPTGSSHGTPTHQNKPQTLDPFADLGTLGGSSFASKPSTPTGLGGGFPPLSSPQKASPQPMGGGWQQGGGYNWQQTQSKPQSSMPHSSPQNRPNYNVSFSSMPGGQNERGKAAANLEGKQKAADFEDLLSGQGFNAHKDKKGPRTIAEMRKEEMAKEMDPEKLKILEWIEGKERNIRALLSTMHTVLWAGETKWKPVGMADLVTPEQVKKVYRKAVLVVHPDKATGQPYEQYAKMIFMELNDAWSEFENQGQKPLY
effect on ATPase activity of Hsc70 NBD variants [7]: stimulated by its J-protein (auxilin) if and only if the interdomain linker was present; also recorded: could be stimulated by its J-protein, auxilin
